Patent US20260217779A1 (Chugai, published 2026)
Residue numbers refer to the chain shown, from its start. Numbers in names are those of the source.

B1: hCXCL11.0050-G1T4k.one//VHn-G1T4h.one.H435R (Fc fusion)
chain 1: FNPMFKRGRCLCIGPGVKAVKVADIEKASIMYPSNNCDKIEVIITLKENKGQRCLNPKSKQARLIIKKVERKNFEPKSSDKTHTCPPCPAPELRRGPSVFLFPPKPKDTLMISRTPEVTCVVVDVSHEDPEVKFNWYVDGVEVHNAKTKPREEQYNSTYRVVSVLTVLHQDWLNGKEYKCKVSNKGLPSSIEKTISKAKGQPREPQVCTLPPSREEMTKNQVSLWCLVKGFYPSDIAVEWESNGQPENNYKTTPPVLDSDGSFFLYSKLTVDKSRWQEGNVFSCSVMHEALHNHYTQKSLSLSP
chain 2: EPKSSDKTHTCPPCPAPELRRGPSVFLFPPKPKDTLMISRTPEVTCVVVDVSHEDPEVKFNWYVDGVEVHNAKTKPREEQYNSTYRVVSVLTVLHQDWLNGKEYKCKVSNKGLPSSIEKTISKAKGQPREPQVYTLPPSRCEMTKNQVSLSCAVKGFYPSDIAVEWESNGQPENNYKTTPPVLDSDGSFFLVSKLTVDKSRWQEGNVFSCSVMHEALHNRYTQKSLSLSP
B2: hCXCL11.0053-G1T4k.one//VHn-G1T4h.one.H435R (Fc fusion)
chain 1: B1 chain 1 with N2R
chain 2: B1 chain 2
B3: hCXCL11.0052-G1T4k.one//VHn-G1T4h.one.H435R (Fc fusion)
chain 1: B1 chain 1 with N2Q
chain 2: B1 chain 2
B4: hCXCL11.0054-G1T4k.one//VHn-G1T4h.one.H435R (Fc fusion)
chain 1: B1 chain 1 with N2S
chain 2: B1 chain 2
B5: hCXCL11.0058-G1T4k.one//VHn-G1T4h.one.H435R (Fc fusion)
chain 1: B1 chain 1 with N2Y
chain 2: B1 chain 2
B6: hCXCL11.0056-G1T4k.one//VHn-G1T4h.one.H435R (Fc fusion)
chain 1: B1 chain 1 with N2V
chain 2: B1 chain 2
B7: hCXCL11.0055-G1T4k.one//VHn-G1T4h.one.H435R (Fc fusion)
chain 1: B1 chain 1 with N2T
chain 2: B1 chain 2
B8: hCXCL11.0051-G1T4k.one//VHn-G1T4h.one.H435R (Fc fusion)
chain 1: B1 chain 1 with N2P
chain 2: B1 chain 2
B9: hCXCL11.0057-G1T4k.one//VHn-G1T4h.one.H435R (Fc fusion)
chain 1: B1 chain 1 with N2W
chain 2: B1 chain 2

biological target: T1, human CXCR3 (hCXCR3) on Ba/F3 transfectant cells (human, UniProt P49682 1-368); assay: cell-based or functional assay
T1 sequence: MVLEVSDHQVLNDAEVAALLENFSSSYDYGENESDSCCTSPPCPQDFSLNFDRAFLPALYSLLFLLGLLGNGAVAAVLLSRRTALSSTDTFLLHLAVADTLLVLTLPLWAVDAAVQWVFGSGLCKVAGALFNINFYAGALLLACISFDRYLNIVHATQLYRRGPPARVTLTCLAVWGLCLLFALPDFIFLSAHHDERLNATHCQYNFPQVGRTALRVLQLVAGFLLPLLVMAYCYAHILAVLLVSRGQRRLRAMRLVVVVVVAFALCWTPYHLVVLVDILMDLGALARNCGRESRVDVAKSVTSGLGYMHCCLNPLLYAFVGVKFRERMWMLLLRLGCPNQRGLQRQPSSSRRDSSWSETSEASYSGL

| Binder | Activity retention rate at 33 nM | Activity retention rate at 100 nM | Activity retention rate at 300 nM | Luminescence value at 33 nM | Luminescence value at 100 nM | Luminescence value at 300 nM |
| --- | --- | --- | --- | --- | --- | --- |
| B1 | 30% | 51% | 64% | 2.32e+06 | 8.49e+06 | 7.92e+06 |
| B2 | 8% | 26% | 60% | 595000 | 4.26e+06 | 7.43e+06 |
| B3 | 77% | 90% | 67% | 5.88e+06 | 1.51e+07 | 8.33e+06 |
| B4 | 42% | 63% | 51% | 3.24e+06 | 1.05e+07 | 6.34e+06 |
| B5 | 15% | 42% | 84% | 1.12e+06 | 7.07e+06 | 1.04e+07 |
| B6 | 8% | 33% | 59% | 643000 | 5.57e+06 | 7.33e+06 |
| B7 | 39% | 58% | 42% | 2.98e+06 | 9.65e+06 | 5.27e+06 |
| B8 | 84% | 89% | 82% | 6.46e+06 | 1.49e+07 | 1.02e+07 |
| B9 | 7% | 37% | 86% | 501000 | 6.21e+06 | 1.07e+07 |
